± gives the uncertainty stated by the source.
B1: SWI/SNF complex subunit SMARCC1, residues 620 to 663; numbered along this chain, Q92922 (parent)
chain: GREWTEQETLLLLEALEMYKDDWNKVSEHVGSRTQDECILHFLR

Variants of: B1
Experiment: abundance fitness (aPCA) (normalised: wild type 0, dead -1); higher = more abundant; growth selection in yeast, the domain comes from the species named
Conditions: Homo sapiens

Abundance fitness, by site and new letter:
G1: R -0.383 ± 0.12; F -0.122 ± 0.2; I 0.128 ± 0.1; W -0.293 ± 0.28
V30: Y -1.05 ± 0.27; N -0.79 ± 0.31; L -0.131 ± 0.098; P -0.635 ± 0.12; G -0.792 ± 0.14; Q -0.764 ± 0.13; E -1.18 ± 0.32; M -0.019 ± 0.15; R -0.847 ± 0.16; C -0.277 ± 0.13
M18: V -0.002 ± 0.067; T 0.1 ± 0.17; L 0.063 ± 0.067; P -0.583 ± 0.41; A 0.115 ± 0.069; G -0.24 ± 0.074; K -0.076 ± 0.089; D -0.097 ± 0.25; E -0.135 ± 0.11
Y19: G -0.108 ± 0.059; L -0.776 ± 0.19; M -0.62 ± 0.16
T5: K 0.03 ± 0.099; E 0.081 ± 0.1; L -0.174 ± 0.065; Y -0.116 ± 0.11; V -0.461 ± 0.091; H -0.513 ± 0.14; W -0.693 ± 0.24; R -0.241 ± 0.069
F42: Y 0.349 ± 0.13; C -0.286 ± 0.15; P 0.405 ± 0.092; V -0.134 ± 0.11; W 0.401 ± 0.089; K 0.592 ± 0.087; M -0.2 ± 0.14; R 0.337 ± 0.083; S 0.25 ± 0.092
L11: D -0.19 ± 0.12; W -0.258 ± 0.11; N -0.304 ± 0.093; T 0.016 ± 0.06; C -0.521 ± 0.18; S 0.024 ± 0.057; M 0.138 ± 0.076; P -0.58 ± 0.097; G -0.154 ± 0.074
L43: V 0.209 ± 0.058; Y 0.126 ± 0.085; S 0.338 ± 0.058; I 0.098 ± 0.062; C 0.187 ± 0.075; P 0.302 ± 0.065; D 0.587 ± 0.069; R 0.507 ± 0.049; F 0.149 ± 0.07; K 0.554 ± 0.07
E6: F -0.265 ± 0.072; R -0.137 ± 0.062; W -0.155 ± 0.083; Y -0.178 ± 0.073; A 0.071 ± 0.056; S -0.441 ± 0.075; M 0.099 ± 0.073; G -0.194 ± 0.076; N -0.17 ± 0.11; L -0.234 ± 0.073; I -0.12 ± 0.075
R33: Y -0.744 ± 0.15; S -0.678 ± 0.099; Q -1.01 ± 0.44; G -0.569 ± 0.094; E -0.319 ± 0.15; P -0.653 ± 0.13; W -0.404 ± 0.087; K 0.037 ± 0.08; H -0.251 ± 0.087; N -0.884 ± 0.18; A -0.285 ± 0.084; M -0.585 ± 0.13; I -0.885 ± 0.14
T34: V -0.119 ± 0.18; K 0.165 ± 0.086; W -0.416 ± 0.13; L -0.257 ± 0.097; F -0.783 ± 0.36; N 0.075 ± 0.082
D21: H 0.102 ± 0.087; M -0.363 ± 0.17; V -0.419 ± 0.094; A -0.066 ± 0.068; N 0.227 ± 0.16; S -0.078 ± 0.088; W -0.578 ± 0.23; Q 0.067 ± 0.08; R 0.268 ± 0.059; I -0.601 ± 0.34
E37: K -0.546 ± 0.23; S -0.533 ± 0.14; V -1.01 ± 0.23; G -0.722 ± 0.21; D 0.021 ± 0.11; F -1.02 ± 0.37; H -0.668 ± 0.14; R -0.63 ± 0.15
E28: L -0.31 ± 0.08; W 0.08 ± 0.32; A -0.434 ± 0.097; K -0.269 ± 0.11; Y -0.404 ± 0.13; D 0.373 ± 0.27
D36: S 0.021 ± 0.056; I -0.342 ± 0.094; Y -0.374 ± 0.12; W -0.299 ± 0.14; H -0.092 ± 0.09; L -0.383 ± 0.073; F -0.327 ± 0.11; R -0.017 ± 0.054; M -0.375 ± 0.17; C -0.126 ± 0.16
S27: R 0.01 ± 0.068; H 0.063 ± 0.072; G 0.056 ± 0.068; P -0.319 ± 0.081; F -0.516 ± 0.24; I -0.149 ± 0.13; C -0.119 ± 0.1; L -0.375 ± 0.13
L12: C -0.401 ± 0.15; V -0.341 ± 0.11; H -0.413 ± 0.076; Q -0.372 ± 0.14; P -0.709 ± 0.28; G 0.009 ± 0.12; S -0.651 ± 0.11; N -0.938 ± 0.17; E -0.129 ± 0.17
S32: P -0.419 ± 0.1; W -0.622 ± 0.19; G 0.115 ± 0.057; A -0.015 ± 0.064; H -0.138 ± 0.064; L -0.224 ± 0.062; N 0.025 ± 0.097; I -0.135 ± 0.085; Q 0.032 ± 0.068
R2: L -0.719 ± 0.11; A 0.288 ± 0.12; V 0.086 ± 0.1; Q -0.298 ± 0.35; F 0.253 ± 0.15; I 0.415 ± 0.096; T 0.174 ± 0.077
L13: T 0.531 ± 0.24; Y -0.229 ± 0.42; R 0.127 ± 0.11; I 0.044 ± 0.24; D 0.01 ± 0.22; W -0.314 ± 0.45; H -0.166 ± 0.12; Q -0.197 ± 0.18
H41: Q -0.21 ± 0.095; G -0.407 ± 0.092; C -0.089 ± 0.14; A 0.064 ± 0.059; K 0.223 ± 0.11; L -0.247 ± 0.06
W23: D -0.374 ± 0.15; N -0.579 ± 0.13; L -0.528 ± 0.086; P -0.535 ± 0.11; F -0.186 ± 0.14; G -0.631 ± 0.077; M -0.32 ± 0.11; H -0.696 ± 0.2; E -0.577 ± 0.15; A -0.712 ± 0.12; C -0.48 ± 0.089
W4: H -0.4 ± 0.21; S -0.08 ± 0.12; N -0.265 ± 0.16; T -0.134 ± 0.23; M -0.141 ± 0.11; G -0.153 ± 0.086; L -0.285 ± 0.08; D -0.168 ± 0.084; E 0.023 ± 0.11; R -0.084 ± 0.094
I39: G -0.004 ± 0.064; F -0.043 ± 0.065; P -0.378 ± 0.085; M 0.217 ± 0.08
T9: K 0.158 ± 0.1; R 0.252 ± 0.068; H -0.023 ± 0.15; Q 0.319 ± 0.13; S -0.01 ± 0.076; I 0.264 ± 0.14; D -0.075 ± 0.24; C -0.015 ± 0.12; L -0.044 ± 0.062; N -0.04 ± 0.079
L10: K 0.176 ± 0.057; M -0.21 ± 0.13; V -0.04 ± 0.06; P -0.287 ± 0.079; C 0.243 ± 0.11; N -0.247 ± 0.42; H 0.084 ± 0.074; T 0.237 ± 0.069; S 0.147 ± 0.065; I -0.016 ± 0.32
V26: D -0.768 ± 0.21; I -0.051 ± 0.19; Q -0.533 ± 0.21; L -0.513 ± 0.09; E -0.406 ± 0.17
K20: F -0.226 ± 0.11; G -0.188 ± 0.06; C -0.375 ± 0.09; E -0.085 ± 0.1; V -0.123 ± 0.062; S -0.2 ± 0.059; A -0.139 ± 0.064; P 0.058 ± 0.064; T -0.14 ± 0.073; R -0.234 ± 0.062
E14: S -0.27 ± 0.068; I -0.97 ± 0.44; L -0.549 ± 0.1; Y -0.428 ± 0.2; K -0.006 ± 0.12; D -0.177 ± 0.27; T -0.18 ± 0.091
Q35: A -0.038 ± 0.076; M -0.061 ± 0.36; P -0.136 ± 0.079; H 0.012 ± 0.095; W -0.336 ± 0.15; N 0.063 ± 0.083; V -0.017 ± 0.064; K 0.261 ± 0.061; D 0.05 ± 0.41
N24: A 0.027 ± 0.062; K 0.155 ± 0.084; Y -0.097 ± 0.088; T -0.029 ± 0.069; W -0.168 ± 0.079; S 0.119 ± 0.052; H 0.006 ± 0.078; D 0.024 ± 0.096; R -0.032 ± 0.057
G31: K 0.073 ± 0.084; L -0.528 ± 0.077; C -0.009 ± 0.072; D -0.205 ± 0.14; M -0.059 ± 0.087; E 0.032 ± 0.064
C38: S -0.624 ± 0.087; V -0.348 ± 0.089; L -0.5 ± 0.11; A -0.572 ± 0.11; H -0.774 ± 0.17; Q -0.514 ± 0.16; Y -0.903 ± 0.33; R -0.367 ± 0.13; I -0.361 ± 0.076
D22: A -0.447 ± 0.096; G -0.419 ± 0.097; Q -0.112 ± 0.073; H -0.264 ± 0.14; L -0.44 ± 0.12
A15: R -0.82 ± 0.14; D -0.562 ± 0.44; E -0.716 ± 0.16; H -0.707 ± 0.18; S -0.043 ± 0.058; K -0.925 ± 0.24; L -0.926 ± 0.13; G 0.03 ± 0.056
L16: V 0.224 ± 0.058; Q 0.428 ± 0.075; I 0.079 ± 0.091; F -0.231 ± 0.083; Y 0.334 ± 0.063
L40: Y 0.213 ± 0.079; R 0.157 ± 0.062; C 0.108 ± 0.09; K 0.171 ± 0.083; G 0.049 ± 0.089; F -0.074 ± 0.074; N 0.135 ± 0.069; I -0.138 ± 0.085; S 0.266 ± 0.057; P -0.299 ± 0.067
E8: G -0.861 ± 0.12; V -1 ± 0.22; D -0.76 ± 0.23; M -0.482 ± 0.21; N -0.584 ± 0.12; W -1.06 ± 0.33; S -1.01 ± 0.14; P -0.593 ± 0.12
K25: A 0.091 ± 0.061; E -0.14 ± 0.11; Y -0.473 ± 0.12; T -0.129 ± 0.088; M 0.194 ± 0.16
E3: F 0.178 ± 0.14; G 0.158 ± 0.063; M -0.063 ± 0.13; Q 0.12 ± 0.12; S 0.329 ± 0.084; P 0.077 ± 0.11
H29: L -0.264 ± 0.074; Q -0.11 ± 0.13; T -0.419 ± 0.11; R -0.153 ± 0.1; Y -0.014 ± 0.095; S -0.344 ± 0.083; M -0.209 ± 0.09
E17: R -0.007 ± 0.058; K 0.139 ± 0.14; G -0.213 ± 0.064; S -0.308 ± 0.082; Q -0.033 ± 0.11; I -0.553 ± 0.2; M -0.722 ± 0.2

Source: the Human Domainome abundance scans (Beltran et al. 2025)
